Test results from paper doi:10.1101/2025.03.01.640934 (bioRxiv, 2025).

Target: the molecule itself
Experiment: native MS

B1: recombinant DK fragment (DUF3669 and KRAB domains; residues 1-191) of ZNF746 (domain or fragment)
chain: not shown
stoichiometry N: 3
